We go through 2 substances from publication PMC2778949.

The experiment deals with Serum Resistance-Associated protein with C-terminal S tag. In words: pull-down (sup/bound fractions, western blot with α-S tag), quantified. To be noted: read off a plot. A general note: A western blot detects proteins with antibodies after separation by electrophoresis.

Take “Apolipoprotein L-I, wild type, with C-terminal V5-His6 tag (from UniProt O14791-1) N386T; N387K; N388I; Y389Q”: the percent of parent (parent: est. 100) was 5.5 % binding.
For “apoL1 truncated mutant NNNY (9 C-terminal amino acids removed, human last four residues NNNY), C-terminal V5-His6 tag (from UniProt O14791-1) N386T; N387K; N388I; Y389Q”, the response (parent: est. 9) was 9.5 % binding.
